The results in this text go back to patent US20260248946A1 (TUOJIE BIOTECH SHANGHAI, published 2026).

Numbering of substitutions follows the chain as printed.

First the molecules themselves.
T1: human CD79B on the surface of cells (DoHH2 / DOHH-2, WSU-DLCL2) (human, UniProt P40259 29-229)
T1 construct: whole, on cells; also called CD79B protein on the surface of DoHH2 cells; DoHH2 cell
T1 sequence (looked up): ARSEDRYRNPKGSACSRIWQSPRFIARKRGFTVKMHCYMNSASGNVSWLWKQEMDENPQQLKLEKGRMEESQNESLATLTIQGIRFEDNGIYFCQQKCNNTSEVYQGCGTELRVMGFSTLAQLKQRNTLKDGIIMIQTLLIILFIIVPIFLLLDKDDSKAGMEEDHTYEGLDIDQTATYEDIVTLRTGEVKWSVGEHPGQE

T2: fusion protein of human CD79B extracellular domain (ECD) and His tag (human, UniProt P40259 29-159)
T2 construct: also called human CD79B ECD-His; Human CD79B-His protein
T2 sequence: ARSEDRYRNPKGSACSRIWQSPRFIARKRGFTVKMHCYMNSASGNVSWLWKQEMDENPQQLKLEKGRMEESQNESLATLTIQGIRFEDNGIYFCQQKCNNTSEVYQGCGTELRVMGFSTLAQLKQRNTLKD

T3: human CD79B antigen (coated in the ELISA of the anti-human CD79B mouse antibodies) (human, UniProt P40259 29-159)
T3 construct: extracellular domain; The ELISA protocols only say 'antigen'
T3 sequence (looked up): T2 sequence

T4: human CD79B-His protein (Cat. #29750-H08H, Sino Biological) (human, UniProt P40259 29-159)
T4 construct: also called human CD79B protein; CD79B protein
T4 sequence (looked up): T2 sequence

B1: hAb017-10 (antibody, human IgG1, kappa, V domains shown)
VH: EVQLVQSGAEVKKPGASVKVSCKASGYTFTTYGINWVKQAPGQGLEWIGEIYPRSGNIYYNEKFKGKATLTADKSTSTAYMELRSLRSDDTAVYYCARGSDYDGDFAYWGQGTLVTVSS
VL: DVVMTQTPLSLPVTPGEPASISCRSSQSIVHHDGNTYLEWYLQKPGQSPQLLIYKVSNRFSGVPDRFSGSGSGTDFTLKISRVEAEDVGVYYCFQGSHVPWTFGGGTKVEIKR
notes: Humanized antibody; also called hAb017-10 humanized antibody
B2: hAb015-10 (antibody, human IgG1, kappa, V domains shown)
VH: EVQLVQSGAEVKKPGSSVKVSCKASGSSFSSYGINWVKQAPGQGLEWIGEIFPRSGNTYYNEKFEGRATLTADKSTSTAYMELRSLRSEDTAVYYCAKGDLGDFDYWGQGTTVTVSS
VL: B1 VL with V2F, H32S, L38F, Q50K
notes: Humanized antibody; also called hAb015-10 humanized antibody; humanized mAb015
B3: ADC-7 (antibody, human IgG1, kappa, V domains shown)
VH: B2 VH
VL: B1 VL with V2F, H32S, L38F, Q50K
modifications: compound D coupled to cysteines after TCEP reduction; positions not given; compound D (exatecan-type linker-drug, Topo I inhibitor) coupled to cysteines after TCEP reduction; positions not given; mean n=5.84 per antibody
B4: ADC-1 (antibody, human IgG1, kappa, V domains shown)
VH: B2 VH
VL: B1 VL with V2F, H32S, L38F, Q50K
modifications: compound B coupled to cysteines after TCEP reduction; positions not given; compound B (eribulin-derivative linker-drug) coupled to cysteines after TCEP reduction; positions not given; mean n=3.06 per antibody
notes: Antibody-drug conjugate of hAb015-10; DAR 3.06; also called hAb015-10-cys-B
B5: ADC-4 (antibody, human IgG1, kappa, V domains shown)
VH: B2 VH
VL: B1 VL with V2F, H32S, L38F, Q50K
modifications: compound C coupled to cysteines after TCEP reduction; positions not given; compound C (linker-drug) coupled to cysteines after TCEP reduction; positions not given; mean n=4.52 per antibody
notes: Antibody-drug conjugate of hAb015-10; DAR 4.52; also called hAb015-10-cys-C
B6: ADC-5 (antibody, human IgG1, kappa, V domains shown)
VH: B2 VH
VL: B1 VL with V2F, H32S, L38F, Q50K
modifications: compound D coupled to cysteines after TCEP reduction; positions not given; compound D (exatecan-type linker-drug, Topo I inhibitor) coupled to cysteines after TCEP reduction; positions not given; mean n=1.81 per antibody
notes: Antibody-drug conjugate of hAb015-10; also called HAB015-10-cys-D, with a DAR value of about 2
B7: ADC-2 (antibody, human IgG1, kappa, V domains shown)
VH: B2 VH
VL: B1 VL with V2F, H32S, L38F, Q50K
modifications: compound A coupled to cysteines after TCEP reduction; positions not given; compound A (Malei-PEG2-vc-PAB-MMAE) coupled to cysteines after TCEP reduction; positions not given; mean n=3.68 per antibody
notes: Antibody-drug conjugate of hAb015-10; DAR 3.68; also called hAb015-10-cys-Malei-PEG2-vc-PAB-MMAE
B8: ADC-3 (antibody, human IgG1, kappa, V domains shown)
VH: B2 VH
VL: B1 VL with V2F, H32S, L38F, Q50K
modifications: MC-vc-PAB-MMAE coupled to cysteines after TCEP reduction; positions not given; MC-vc-PAB-MMAE coupled to cysteines after TCEP reduction; positions not given; mean n=3.09 per antibody
notes: Antibody-drug conjugate of hAb015-10; DAR 3.09; also called hAb015-10-cys-MC-vc-PAB-MMAE
B9: ADC-6 (antibody, human IgG1, kappa, V domains shown)
VH: B2 VH
VL: B1 VL with V2F, H32S, L38F, Q50K
modifications: compound D coupled to cysteines after TCEP reduction; positions not given; compound D (exatecan-type linker-drug, Topo I inhibitor) coupled to cysteines after TCEP reduction; positions not given; mean n=3.46 per antibody
B10: ADC-8 (antibody, human IgG1, kappa, V domains shown)
VH: EVQLVESGGGLVQPGGSLRLSCAASGYTFSSYWIEWVRQAPGKGLEWIGEILPGGGDTNYNEIFKGRATFSADTSKNTAYLQMNSLRAEDTAVYYCTRRVPIRLDYWGQGTLVTVSS
VL: DIQLTQSPSSLSASVGDRVTITCKASQSVDYEGDSFLNWYQQKPGKAPKLLIYAASNLESGVPSRFSGSGSGTDFTLTISSLQPEDFATYYCQQSNEDPLTFGQGTKVEIKR
modifications: MC-VC-PAB-MMAE coupled to cysteines after TCEP reduction; positions not given; MC-VC-PAB-MMAE coupled to cysteines after TCEP reduction; positions not given; mean n=3.59 per antibody
B11: mAb015 (antibody, V domains shown)
VH: QVQLQQSGAELARPGASVKLSCKASGSSFTSYGINWVKQRTGQGLEWIGEIFPRSGNTYYNEKFEGKATLTADKSSSTAYMELRSLTSEDSAVYFCAKGDLGDFDYWGQGTTLTVSS
VL: DFLMTQTPLSLPVRLGDQASISCRSSQSIVHSDGNTYFEWYLQKPGQSPKLLIYKVSNRFSGVPDRFSGSGSGTDFTLKISRVEAEDLGVYYCFQGSHVPWTFGGGTKLEIK
notes: Mouse monoclonal antibody from hybridoma; also called 83B2G2
B12: mAb017 (antibody, V domains shown)
VH: QVQLQQSGAELARPGASVKLSCKASGYTFTTYGINWVKQRTGQGLEWIGEIYPRSGNIYYNEKFKGKATLTADKSSSTAYMELRSLTSEDSAVYFCARGSDYDGDFAYWGQGTLVTVSA
VL: B11 VL with F2V, R14S, S32H, F38L, K108Q
notes: Mouse monoclonal antibody from hybridoma; also called 86F11F6
B13: mAb016 (antibody, V domains shown)
VH: QVQLQQSGAELARPGASVKLSCKASGYIFTNYGIIWVKQRTGQGLEWIGDIFPGSGNTYYNENFKGKATLTADKSSSTAYMELRSLTSEDSAVYFCSRGELGDFDYWGQGTTLTVSS
VL: B11 VL with D1V, F2V, R14S, S28N, N35T, F38L, V90I
B14: SN8 (antibody, human IgG1, kappa, V domains shown)
VH: B10 VH
VL: B10 VL
notes: also called positive control antibody; the antibody in Polivy (polatuzumab vedotin)

For the first experiment, the target named is T1, human CD79B on the surface of cells …. In words: FACS on DoHH2 cells.
With B1, the EC50 (usually the concentration that produces a half-maximal response) was found to be 0.55 nM.

B2 came in with an EC50 of 0.4 nM.

Another experiment shares this target. Description: cell-based or functional assay.
For B3, the “Endocytosis rate (4 h), DoHH2 cells” value came out at 68%.

Take B4: the “Endocytosis rate (4 h), DoHH2 cells” value is 73%.

Take B5: the “Endocytosis rate (4 h), DoHH2 cells” value turned out to be 81%.

For B6, the “Endocytosis rate (4 h), DoHH2 cells” value is 76%.

As for B7, the “Endocytosis rate (4 h), DoHH2 cells” value stood at 66%.

Take B8: the “Endocytosis rate (4 h), DoHH2 cells” value stood at 70%.

B9: the “Endocytosis rate (4 h), DoHH2 cells” value came out at 75%.

With B10, the “Endocytosis rate (4 h), DoHH2 cells” value amounted to 76%.

Another experiment has the same target. Description: cell-based or functional assay. This is another data set of the same source.
Regarding B3, the “IC50 of in vitro proliferation, DoHH2 cells (MTT, 72 h)” value (“IC50 … DoHH2 cells (MTT, 72 h)” below) was 0.002 µg/mL and the “IC50 of in vitro proliferation, WSU-DLCL2 cells (MTT, 72 h)” value (“IC50 … WSU-DLCL2 cells (MTT, 72 h)” below) came to 0.0534 µg/mL.

Take B6: the “IC50 … DoHH2 cells (MTT, 72 h)” value turned out to be 0.0085 µg/mL and the “IC50 … WSU-DLCL2 cells (MTT, 72 h)” value worked out at 0.0683 µg/mL.

Turning to B8, the “IC50 … DoHH2 cells (MTT, 72 h)” value amounted to 0.0033 µg/mL and the “IC50 … WSU-DLCL2 cells (MTT, 72 h)” value turned out to be 0.0059 µg/mL.

Turning to B9, the “IC50 … DoHH2 cells (MTT, 72 h)” value amounted to 0.0033 µg/mL and the “IC50 … WSU-DLCL2 cells (MTT, 72 h)” value came to 0.0542 µg/mL.

Regarding B10, the “IC50 … DoHH2 cells (MTT, 72 h)” value was 0.0806 µg/mL and the “IC50 … WSU-DLCL2 cells (MTT, 72 h)” value came to 0.117 µg/mL.

The target is the same in a further experiment. Description: FACS on DoHH2 cells. This is another data set of the same source. As to the method:
3) Assay on anti-human CD79B mouse monoclonal antibodies by FACS The cell suspension of DoHH2 cells was centrifuged, resuspended in PBS containing 0.1% BSA, and counted. 100 μL of antibody diluted in a 1:10 ratio from 100 nM was added, and the cells were incubated at room temperature for 1 h and washed three times. Then Anti-Mouse IgG (Fc specific)-FITC secondary antibody was added, and the cells were incubated at room temperature for 30 min away from the light, washed three times, gently resuspended in PBS containing 0.1% BSA, and loaded on the machine for assay.
Turning to B11, the EC50 (read off the curve) (usually the midpoint of the concentration-response curve) was approximately 0.03 µg/mL.

B12: the “EC50 (read off the curve)” value was approximately 0.02 µg/mL.

In the case of B13, the “EC50 (read off the curve)” value is approximately 0.02 µg/mL.

As to B14, the “EC50 (read off the curve)” value is approximately 0.09 µg/mL.

In another experiment the target is T2, fusion protein of human CD79B …. Description: SPR, Human CD79B-His protein. In general terms: In SPR one partner is held on a chip, and binding of the other changes the refractive index at the surface.
With B1, the Kd (usually a measure of binding affinity in units of concentration) was determined as 4.3 nM.

As for B2, the dissociation constant (Kd) came to 1.5 nM.

For the next experiment the target is unchanged. In words: ELISA on Human CD79B-His protein.
Take B1: the response was half-maximal at 0.06 nM (EC50).

B2 registered an EC50 of 0.05 nM.

For another experiment, the target named is T3, human CD79B antigen (coated in the …). Description: ELISA on coated human CD79B antigen. As to the method:
2) Assay on anti-human CD79B mouse monoclonal antibodies by ELISA A 96-well plate was coated with 1 μg/mL antigen at 50 μL/well and incubated in a refrigerator at 4° C. overnight. The next day, the coated antigen plate was washed once (washing solution: 1× PBST). After washing, the plate was blocked with 1% BSA blocking solution prepared in 1× PBST at 37° C. for 1 h. After washing the plate 3 times with 1× PBST, 50 μL of antibody diluted in a 1:10 ratio from 100 nM was added, and the plate was incubated in an incubator at 37° C. for 1 h. After washing the plate 3 times with 1× PBST, 100 μL of goat anti-mouse secondary antibody diluted in a 1:5000 ratio was added, and the plate was incubated in an incubator at 37° C. for 0.5 h. After washing the plate, TMB color development solutions A and B were mixed in a 1:1 ratio for color development. 15 min later, the color development reaction was stopped with 1 N hydrochloric acid. […] value was read at 450 nm on a Spectra Max M5 microplate reader.
On the technique in general: An ELISA detects its analyte on a solid surface through an enzyme-linked reagent.
As to B11, the “EC50 (read off the curve)” value lay within 0.1 to 0.2 nM.

In the case of B12, the “EC50 (read off the curve)” value was 0.1 to 0.2 nM.

In the case of B13, the “EC50 (read off the curve)” value was in the range of 0.1 to 0.2 nM.

The target of a further experiment is T4, human CD79B-His protein (Cat. …). In words: Biacore T200, antibody captured by anti-human capture antibody on CM5, 1:1 Langmuir fit; EC50. The text has this: Experimental procedures: human antibody capture antibodies were covalently coupled to a CM5 biochip according to the method described instructions of the human antibody capture kit for affinity capture of a certain amount of CD79B antibody.
Statistics and analysis of data: data were fitted by BIAevaluation version 4.1, GE software using a (1:1) Langmuir model to obtain affinity values.
As for B2, the midpoint of the response, the EC50, lay at 0.38 nM.
